Data reported in patent US20160168253.

Target: T1, peptide substrate MCA-RPPGFSAFK(Dnp)-OH (R&D Systems Cat. No. ES005)
T1 chain: RPPGFSAFK

B1: Neprilysin (R&D Systems, Cat. No 1182-ZNC) (protein)
chain: YDDGICKSSDCIKSAARLIQNMDATTEPCTDFFKYACGGWLKRNVIPETSSRYGNFDILRDELEVVLKDVLQEPKTEDIVAVQKAKALYRSCINESAIDSRGGEPLLKLLPDIYGWPVATENWEQKYGASWTAEKAIAQLNSKYGKKVLINLFVGTDDKNSVNHVIHIDQPRLGLPSRDYYECTGIYKEACTAYVDFMISVARLIRQEERLPIDENQLALEMNKVMELEKEIANATAKPEDRNDPMLLYNKMTLAQIQNNFSLEINGKPFSWLNFTNEIMSTVNISITNEEDVVVYAPEYLTKLKPILTKYSARDLQNLMSWRFIMDLVSSLSRTYKESRNAFRKALYGTTSETATWRRCANYVNGNMENAVGRLYVEAAFAGESKHVVEDLIAQIREVFIQTLDDLTWMDAETKKRAEEKALAIKERIGYPDDIVSNDNKLNNEYLELNYKEDEYFENIIQNLKFSQSKQLKKLREKVDKDEWISGAAVVNAFYSSGRNQIVFPAGILQPPFFSAQQSNSLNYGGIGMVIGHEITHGFDDNGRNFNKDGDLVDWWTQQSASNFKEQSQCMVYQYGNFSWDLAGGQHLNGINTLGENIADNGGLGQAYRAYQNYIKKNGEEKLLPGLDLNHKQLFFLNFAQVWCGTYRPEYAVNSIKTDVHSPGNFRIIGTLQNSAEFSEAFHCRKNSYMNPEKKCRVW
  Km [µM] (apparent Km, hydrolysis of fluorogenic peptide substrate): 3.2 µM
  Vmax: 2930 s⁻¹
